We go through 23 molecules from patent publication US20060140929A1 (Merck KGaA, published 2006).

The chains are these.
B1: hirudin mutein M 20 (I29E L30Q) (other)
chain: VVYTDCTESGQNLCLCEGSVVCGQGNKCEQGSDGEKNQCVTGEGTPKPESHNDGDFEEIPEEYLQ
B2: hirudin mutein M 24 (I29R L30Q) (other)
chain: VVYTDCTESGQNLCLCEGSVVCGQGNKCRQGSDGEKNQCVTGEGTPKPESHNDGDFEEIPEEYLQ
B3: hirudin mutein M 23 (I29R L30K) (other)
chain: VVYTDCTESGQNLCLCEGSVVCGQGNKCRKGSDGEKNQCVTGEGTPKPESHNDGDFEEIPEEYLQ
B4: hirudin mutein M 44 (V21H) (other)
chain: VVYTDCTESGQNLCLCEGSVHCGQGNKCILGSDGEKNQCVTGEGTPKPESHNDGDFEEIPEEYLQ
B5: hirudin mutein M 11 (I29R L30R V40T) (other)
chain: VVYTDCTESGQNLCLCEGSVVCGQGNKCRRGSDGEKNQCTTGEGTPKPESHNDGDFEEIPEEYLQ
B6: hirudin mutein M 35 (I29T L30R) (other)
chain: VVYTDCTESGQNLCLCEGSVVCGQGNKCTRGSDGEKNQCVTGEGTPKPESHNDGDFEEIPEEYLQ
B7: hirudin mutein M 34 (I29T L30Q) (other)
chain: VVYTDCTESGQNLCLCEGSVVCGQGNKCTQGSDGEKNQCVTGEGTPKPESHNDGDFEEIPEEYLQ
B8: hirudin mutein M 28 (I29S L30K) (other)
chain: VVYTDCTESGQNLCLCEGSVVCGQGNKCSKGSDGEKNQCVTGEGTPKPESHNDGDFEEIPEEYLQ
B9: hirudin mutein M 33 (I29T L30K) (other)
chain: VVYTDCTESGQNLCLCEGSVVCGQGNKCTKGSDGEKNQCVTGEGTPKPESHNDGDFEEIPEEYLQ
B10: hirudin mutein M 31 (I29S L30T) (other)
chain: VVYTDCTESGQNLCLCEGSVVCGQGNKCSTGSDGEKNQCVTGEGTPKPESHNDGDFEEIPEEYLQ
B11: hirudin mutein M 32 (I29T L30A) (other)
chain: VVYTDCTESGQNLCLCEGSVVCGQGNKCTAGSDGEKNQCVTGEGTPKPESHNDGDFEEIPEEYLQ
B12: hirudin mutein M 26 (I29R L30T) (other)
chain: VVYTDCTESGQNLCLCEGSVVCGQGNKCRTGSDGEKNQCVTGEGTPKPESHNDGDFEEIPEEYLQ
B13: hirudin mutein M 2 (I29R L30H) (other)
chain: VVYTDCTESGQNLCLCEGSVVCGQGNKCRHGSDGEKNQCVTGEGTPKPESHNDGDFEEIPEEYLQ
B14: hirudin mutein M 29 (I29S L30Q) (other)
chain: VVYTDCTESGQNLCLCEGSVVCGQGNKCSQGSDGEKNQCVTGEGTPKPESHNDGDFEEIPEEYLQ
B15: hirudin mutein M 36 (I29T L30T) (other)
chain: VVYTDCTESGQNLCLCEGSVVCGQGNKCTTGSDGEKNQCVTGEGTPKPESHNDGDFEEIPEEYLQ
B16: hirudin mutein M 25 (I29R L30R) (other)
chain: VVYTDCTESGQNLCLCEGSVVCGQGNKCRRGSDGEKNQCVTGEGTPKPESHNDGDFEEIPEEYLQ
B17: hirudin mutein M 30 (I29S L30R) (other)
chain: VVYTDCTESGQNLCLCEGSVVCGQGNKCSRGSDGEKNQCVTGEGTPKPESHNDGDFEEIPEEYLQ
B18: hirudin mutein M 27 (I29S L30A) (other)
chain: VVYTDCTESGQNLCLCEGSVVCGQGNKCSAGSDGEKNQCVTGEGTPKPESHNDGDFEEIPEEYLQ
B19: hirudin mutein M 45 (V21K) (other)
chain: VVYTDCTESGQNLCLCEGSVKCGQGNKCILGSDGEKNQCVTGEGTPKPESHNDGDFEEIPEEYLQ
B20: hirudin mutein M 42 (V21A) (other)
chain: VVYTDCTESGQNLCLCEGSVACGQGNKCILGSDGEKNQCVTGEGTPKPESHNDGDFEEIPEEYLQ
B21: hirudin mutein M 43 (V21G) (other)
chain: VVYTDCTESGQNLCLCEGSVGCGQGNKCILGSDGEKNQCVTGEGTPKPESHNDGDFEEIPEEYLQ
B22: hirudin mutein M 22 (I29E L30T) (other)
chain: VVYTDCTESGQNLCLCEGSVVCGQGNKCETGSDGEKNQCVTGEGTPKPESHNDGDFEEIPEEYLQ
B23: hirudin mutein M 21 (I29E L30R) (other)
chain: VVYTDCTESGQNLCLCEGSVVCGQGNKCERGSDGEKNQCVTGEGTPKPESHNDGDFEEIPEEYLQ

In this experiment the target is thrombin. In words: cell-based or functional assay.
As to B1, the “Relative Activity (ratio of variant IC50/WT IC50), chromogenic thrombin inhibition assay” value amounted to 1.52 ratio.

In the case of B2, the “Relative Activity (ratio of variant IC50/WT IC50), chromogenic thrombin inhibition assay” value was found to be 1 ratio.

Turning to B3, the “Relative Activity (ratio of variant IC50/WT IC50), chromogenic thrombin inhibition assay” value came out at 0.93 ratio.

In the case of B4, the “Relative Activity (ratio of variant IC50/WT IC50), chromogenic thrombin inhibition assay” value stood at 0.74 ratio.

As for B5, the “Relative Activity (ratio of variant IC50/WT IC50), chromogenic thrombin inhibition assay” value amounted to 0.7 ratio.

For B6, the “Relative Activity (ratio of variant IC50/WT IC50), chromogenic thrombin inhibition assay” value is 2.3 ratio.

As for B7, the “Relative Activity (ratio of variant IC50/WT IC50), chromogenic thrombin inhibition assay” value was 2.4 ratio.

Turning to B8, the “Relative Activity (ratio of variant IC50/WT IC50), chromogenic thrombin inhibition assay” value came to 1.5 ratio.

On to B9, for which the “Relative Activity (ratio of variant IC50/WT IC50), chromogenic thrombin inhibition assay” value is 1.6 ratio.

As for B10, the “Relative Activity (ratio of variant IC50/WT IC50), chromogenic thrombin inhibition assay” value stood at 1.1 ratio.

In the case of B11, the “Relative Activity (ratio of variant IC50/WT IC50), chromogenic thrombin inhibition assay” value came to 1.67 ratio.

On to B12, for which the “Relative Activity (ratio of variant IC50/WT IC50), chromogenic thrombin inhibition assay” value amounted to 1 ratio.

As to B13, the “Relative Activity (ratio of variant IC50/WT IC50), chromogenic thrombin inhibition assay” value was 1.2 ratio.

As for B14, the “Relative Activity (ratio of variant IC50/WT IC50), chromogenic thrombin inhibition assay” value amounted to 2 ratio.

Take B15: the “Relative Activity (ratio of variant IC50/WT IC50), chromogenic thrombin inhibition assay” value was determined as 1.8 ratio.

B16: the “Relative Activity (ratio of variant IC50/WT IC50), chromogenic thrombin inhibition assay” value is 1 ratio.

For B17, the “Relative Activity (ratio of variant IC50/WT IC50), chromogenic thrombin inhibition assay” value was determined as 2.5 ratio.

Take B18: the “Relative Activity (ratio of variant IC50/WT IC50), chromogenic thrombin inhibition assay” value was 1.34 ratio.

Regarding B19, the “Relative Activity (ratio of variant IC50/WT IC50), chromogenic thrombin inhibition assay” value was 0.9 ratio.

In the case of B20, the “Relative Activity (ratio of variant IC50/WT IC50), chromogenic thrombin inhibition assay” value stood at 0.93 ratio.

B21: the “Relative Activity (ratio of variant IC50/WT IC50), chromogenic thrombin inhibition assay” value was determined as 1 ratio.

In the case of B22, the “Relative Activity (ratio of variant IC50/WT IC50), chromogenic thrombin inhibition assay” value was 1.8 ratio.

Take B23: the “Relative Activity (ratio of variant IC50/WT IC50), chromogenic thrombin inhibition assay” value came to 1.21 ratio.
